Laboratory results: the supplement of paper PMC7125110
± gives the standard error. For some of these results: Fewer inactive variants are shown than the library holds.

B1: glmS ribozyme (parent)
chain: AUAAAAGCGCCAGAACUACAGAAAUGUAGUUGACGAGGAGGAGGUUUAUCGAAUUUUCGGCGGAUGCCUCCAAA

Columns and labels:
Settings in all cases: with glucosamine-6-phosphate
glucosamine-6-phosphate [1] = variants of: B1; assay: kcat; higher = faster cleavage; RNA array
Method in brief: (§1)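 Tracking of barcoded ribozyme variants used a hybridised Cy3 probe at 37 °C, after in situ transcription by E. coli RNA polymerase on sequenced MiSeq chips. The flowed solution held 40 μM to 10 mM glucosamine-6-phosphate in HEPES/KCl/Mg(OAc)2 buffer, and imaging ran over ~14 h. kobs was taken from exponential decay fits of normalised per-tile medians, and kcat and KM from weighted Michaelis–Menten fits.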

glucosamine-6-phosphate [2] = variants of: B1; assay: self-cleavage kobs at 10000 uM GlcN6P; higher = faster cleavage; RNA array
Method in brief: as §1

glucosamine-6-phosphate [3] = variants of: B1; assay: self-cleavage kobs at 640 uM GlcN6P; higher = faster cleavage; RNA array
Method in brief: as §1

glucosamine-6-phosphate [4] = variants of: B1; assay: KM; higher = weaker cofactor use; RNA array
Method in brief: as §1

glucosamine-6-phosphate [5] = variants of: B1; assay: self-cleavage kobs at 2500 uM GlcN6P; higher = faster cleavage; RNA array
Method in brief: as §1

glucosamine-6-phosphate [6] = variants of: B1; assay: self-cleavage kobs at 160 uM GlcN6P; higher = faster cleavage; RNA array
Method in brief: as §1

glucosamine-6-phosphate [7] = variants of: B1; assay: self-cleavage kobs at 40 uM GlcN6P; higher = faster cleavage; RNA array
Method in brief: as §1

## C10U C61U G63A
glucosamine-6-phosphate [1]
  kcat: < 1e-05 s⁻¹
glucosamine-6-phosphate [2]
  self-cleavage kobs at 10000 uM GlcN6P: < 1e-05 s⁻¹

## A6U A36C G38A A52U
glucosamine-6-phosphate [1]
  kcat: 1.37e-05 ± 2.9e-06 s⁻¹
glucosamine-6-phosphate [3]
  self-cleavage kobs at 640 uM GlcN6P: < 1e-05 s⁻¹
glucosamine-6-phosphate [2]
  self-cleavage kobs at 10000 uM GlcN6P: < 1e-05 s⁻¹

## C10U C70U
glucosamine-6-phosphate [1]
  kcat: 2.53e-05 ± 1.3e-06 s⁻¹
glucosamine-6-phosphate [4]
  KM: 777 ± 240 µM
glucosamine-6-phosphate [5]
  self-cleavage kobs at 2500 uM GlcN6P: 1.83e-05 ± 8e-06 s⁻¹
glucosamine-6-phosphate [2]
  self-cleavage kobs at 10000 uM GlcN6P: 2.38e-05 ± 7e-06 s⁻¹

## C10U C70G
glucosamine-6-phosphate [1]
  kcat: 2.35e-05 ± 4.9e-06 s⁻¹
glucosamine-6-phosphate [5]
  self-cleavage kobs at 2500 uM GlcN6P: 2.76e-05 ± 1.3e-05 s⁻¹

## C11U A14C
glucosamine-6-phosphate [1]
  kcat: 0.000773 ± 0.00026 s⁻¹
glucosamine-6-phosphate [6]
  self-cleavage kobs at 160 uM GlcN6P: 8.34e-05 ± 1.7e-05 s⁻¹
glucosamine-6-phosphate [3]
  self-cleavage kobs at 640 uM GlcN6P: 0.000151 ± 2.1e-05 s⁻¹
glucosamine-6-phosphate [5]
  self-cleavage kobs at 2500 uM GlcN6P: 0.000275 ± 5.2e-05 s⁻¹
glucosamine-6-phosphate [2]
  self-cleavage kobs at 10000 uM GlcN6P: 0.000712 ± 8.5e-05 s⁻¹

## C10A U30C A53G C67A
glucosamine-6-phosphate [1]
  kcat: 1.94e-05 ± 4e-06 s⁻¹

## C10G G51U C68U C70U
glucosamine-6-phosphate [1]
  kcat: < 1e-05 s⁻¹

## G9U A42G U47C
glucosamine-6-phosphate [1]
  kcat: < 1e-05 s⁻¹
glucosamine-6-phosphate [6]
  self-cleavage kobs at 160 uM GlcN6P: < 1e-05 s⁻¹
glucosamine-6-phosphate [3]
  self-cleavage kobs at 640 uM GlcN6P: < 1e-05 s⁻¹

## C11U A14U C16G
glucosamine-6-phosphate [1]
  kcat: 0.000375 ± 7.9e-05 s⁻¹
glucosamine-6-phosphate [5]
  self-cleavage kobs at 2500 uM GlcN6P: 6.42e-05 ± 2.5e-05 s⁻¹
glucosamine-6-phosphate [2]
  self-cleavage kobs at 10000 uM GlcN6P: 0.000164 ± 3.4e-05 s⁻¹

## G7U C67G
glucosamine-6-phosphate [1]
  kcat: < 1e-05 s⁻¹
glucosamine-6-phosphate [5]
  self-cleavage kobs at 2500 uM GlcN6P: < 1e-05 s⁻¹

## G7U C67U
glucosamine-6-phosphate [1]
  kcat: < 1e-05 s⁻¹
glucosamine-6-phosphate [7]
  self-cleavage kobs at 40 uM GlcN6P: < 1e-05 s⁻¹
glucosamine-6-phosphate [6]
  self-cleavage kobs at 160 uM GlcN6P: < 1e-05 s⁻¹
glucosamine-6-phosphate [5]
  self-cleavage kobs at 2500 uM GlcN6P: < 1e-05 s⁻¹

## A6G U65A
glucosamine-6-phosphate [1]
  kcat: 7.49e-05 ± 1.1e-05 s⁻¹
glucosamine-6-phosphate [5]
  self-cleavage kobs at 2500 uM GlcN6P: 4.41e-05 ± 1.2e-05 s⁻¹
glucosamine-6-phosphate [2]
  self-cleavage kobs at 10000 uM GlcN6P: 6.05e-05 ± 9.8e-06 s⁻¹

## C10U C67A
glucosamine-6-phosphate [1]
  kcat: 1.13e-05 ± 2.7e-06 s⁻¹

## A6C U54C
glucosamine-6-phosphate [1]
  kcat: 0.000106 ± 1.8e-05 s⁻¹
glucosamine-6-phosphate [4]
  KM: 2090 ± 1000 µM
glucosamine-6-phosphate [5]
  self-cleavage kobs at 2500 uM GlcN6P: 6.36e-05 ± 1e-05 s⁻¹
glucosamine-6-phosphate [2]
  self-cleavage kobs at 10000 uM GlcN6P: 8.4e-05 ± 1.4e-05 s⁻¹

## A6U C70U
glucosamine-6-phosphate [1]
  kcat: 0.000253 ± 4.2e-05 s⁻¹
glucosamine-6-phosphate [4]
  KM: 1200 ± 440 µM
glucosamine-6-phosphate [3]
  self-cleavage kobs at 640 uM GlcN6P: 8.14e-05 ± 9.8e-06 s⁻¹
glucosamine-6-phosphate [5]
  self-cleavage kobs at 2500 uM GlcN6P: 0.00021 ± 2.2e-05 s⁻¹
glucosamine-6-phosphate [2]
  self-cleavage kobs at 10000 uM GlcN6P: 0.000197 ± 2.7e-05 s⁻¹

## C11A A12G
glucosamine-6-phosphate [1]
  kcat: 0.000158 ± 1.7e-05 s⁻¹
glucosamine-6-phosphate [4]
  KM: 3020 ± 720 µM
glucosamine-6-phosphate [3]
  self-cleavage kobs at 640 uM GlcN6P: 2.43e-05 ± 1.1e-05 s⁻¹
glucosamine-6-phosphate [5]
  self-cleavage kobs at 2500 uM GlcN6P: 8.06e-05 ± 2.3e-05 s⁻¹
glucosamine-6-phosphate [2]
  self-cleavage kobs at 10000 uM GlcN6P: 0.000119 ± 2.5e-05 s⁻¹

## C10A U31G
glucosamine-6-phosphate [1]
  kcat: < 1e-05 s⁻¹
glucosamine-6-phosphate [3]
  self-cleavage kobs at 640 uM GlcN6P: < 1e-05 s⁻¹
glucosamine-6-phosphate [5]
  self-cleavage kobs at 2500 uM GlcN6P: < 1e-05 s⁻¹

## C11A A15G C16A G29U
glucosamine-6-phosphate [1]
  kcat: 0.000222 ± 4.3e-05 s⁻¹
glucosamine-6-phosphate [4]
  KM: 2210 ± 1100 µM
glucosamine-6-phosphate [3]
  self-cleavage kobs at 640 uM GlcN6P: 6.91e-05 ± 2.4e-05 s⁻¹
glucosamine-6-phosphate [5]
  self-cleavage kobs at 2500 uM GlcN6P: 0.000102 ± 2.4e-05 s⁻¹
glucosamine-6-phosphate [2]
  self-cleavage kobs at 10000 uM GlcN6P: 0.000192 ± 3.5e-05 s⁻¹

## C11A G32A
glucosamine-6-phosphate [1]
  kcat: 1.09e-05 ± 7.8e-07 s⁻¹

## C8G U57C
glucosamine-6-phosphate [1]
  kcat: < 1e-05 s⁻¹
glucosamine-6-phosphate [7]
  self-cleavage kobs at 40 uM GlcN6P: < 1e-05 s⁻¹
glucosamine-6-phosphate [3]
  self-cleavage kobs at 640 uM GlcN6P: < 1e-05 s⁻¹
glucosamine-6-phosphate [5]
  self-cleavage kobs at 2500 uM GlcN6P: < 1e-05 s⁻¹
glucosamine-6-phosphate [2]
  self-cleavage kobs at 10000 uM GlcN6P: < 1e-05 s⁻¹

## C10A A42C
glucosamine-6-phosphate [1]
  kcat: < 1e-05 s⁻¹
glucosamine-6-phosphate [4]
  KM: 2410 ± 820 µM
glucosamine-6-phosphate [7]
  self-cleavage kobs at 40 uM GlcN6P: < 1e-05 s⁻¹
glucosamine-6-phosphate [6]
  self-cleavage kobs at 160 uM GlcN6P: < 1e-05 s⁻¹
glucosamine-6-phosphate [3]
  self-cleavage kobs at 640 uM GlcN6P: < 1e-05 s⁻¹
